# Numbered stars: 1 amine (or outer) side, 2 acyl side, 3 side chain; on linkers, the order of the positions; unused ones are H or OH. Bridge positions count the residues as written; N and C are the ends. Side chains are listed from the residue outwards. Ends that are not written are not given here. * marks the point of attachment. C20 diacid = O=C(O)CCCCCCCCCCCCCCCCCCC(=O)*; γGlu = O=C(O)[C@H](CCC(=O)[*:2])N[*:1]; AEEA = NCCOCCOCC(=O)O
# T1: human calcitonin receptor (human, UniProt P30988 25-474)
# T1 construct: whole, on cells; Membranes of a BHK tk'ts 13 cell line stably transfected with the human calcitonin receptor; also called hCTR; hCT
# T1 sequence (looked up): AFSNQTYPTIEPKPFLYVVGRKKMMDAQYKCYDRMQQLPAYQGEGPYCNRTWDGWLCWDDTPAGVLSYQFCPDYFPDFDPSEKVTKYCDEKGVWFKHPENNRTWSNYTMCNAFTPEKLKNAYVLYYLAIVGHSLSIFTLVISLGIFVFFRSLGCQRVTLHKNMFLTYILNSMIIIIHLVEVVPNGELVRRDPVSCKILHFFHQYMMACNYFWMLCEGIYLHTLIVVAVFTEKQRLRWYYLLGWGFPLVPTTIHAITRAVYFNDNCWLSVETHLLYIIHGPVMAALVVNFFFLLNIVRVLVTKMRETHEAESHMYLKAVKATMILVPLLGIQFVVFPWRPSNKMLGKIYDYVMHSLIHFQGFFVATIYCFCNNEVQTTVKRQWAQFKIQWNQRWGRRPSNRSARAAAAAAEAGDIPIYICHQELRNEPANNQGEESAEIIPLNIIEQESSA
# T2: rat amylin receptor (rat calcitonin receptor + rat RAMP 3) (rat, UniProt P32214 25-516; Q9JJ73 23-147)
# T2 construct: whole, on cells; Membranes of BHK tk'ts 13 cells transiently transfected with the rat calcitonin receptor and rat RAMP 3; also called rAmylin-R; rat amylin 3(a) receptor
# T2 sequence (looked up) 1: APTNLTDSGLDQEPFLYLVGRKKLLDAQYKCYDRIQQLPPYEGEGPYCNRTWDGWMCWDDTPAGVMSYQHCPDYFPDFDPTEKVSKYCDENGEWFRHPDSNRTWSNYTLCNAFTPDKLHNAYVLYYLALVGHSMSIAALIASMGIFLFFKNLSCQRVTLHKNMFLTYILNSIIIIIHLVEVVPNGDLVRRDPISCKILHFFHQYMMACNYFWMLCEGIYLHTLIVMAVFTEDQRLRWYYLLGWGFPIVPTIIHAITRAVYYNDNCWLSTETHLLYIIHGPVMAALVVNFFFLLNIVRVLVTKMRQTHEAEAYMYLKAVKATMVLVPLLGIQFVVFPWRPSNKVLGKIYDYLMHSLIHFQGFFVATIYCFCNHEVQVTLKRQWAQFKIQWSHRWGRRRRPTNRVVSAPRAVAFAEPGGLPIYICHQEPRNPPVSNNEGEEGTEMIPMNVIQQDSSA
# T2 sequence (looked up) 2: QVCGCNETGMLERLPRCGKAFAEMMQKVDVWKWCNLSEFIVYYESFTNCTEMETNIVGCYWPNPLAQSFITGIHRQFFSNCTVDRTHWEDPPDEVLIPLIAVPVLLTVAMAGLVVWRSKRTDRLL
# T3: rat calcitonin receptor (rat, UniProt P32214 25-516)
# T3 construct: whole, on cells; Membranes of BHK tk'ts 13 cells transiently transfected with the rat calcitonin receptor; also called rCTR; rat calcitonin (a) receptor
# T3 sequence (looked up): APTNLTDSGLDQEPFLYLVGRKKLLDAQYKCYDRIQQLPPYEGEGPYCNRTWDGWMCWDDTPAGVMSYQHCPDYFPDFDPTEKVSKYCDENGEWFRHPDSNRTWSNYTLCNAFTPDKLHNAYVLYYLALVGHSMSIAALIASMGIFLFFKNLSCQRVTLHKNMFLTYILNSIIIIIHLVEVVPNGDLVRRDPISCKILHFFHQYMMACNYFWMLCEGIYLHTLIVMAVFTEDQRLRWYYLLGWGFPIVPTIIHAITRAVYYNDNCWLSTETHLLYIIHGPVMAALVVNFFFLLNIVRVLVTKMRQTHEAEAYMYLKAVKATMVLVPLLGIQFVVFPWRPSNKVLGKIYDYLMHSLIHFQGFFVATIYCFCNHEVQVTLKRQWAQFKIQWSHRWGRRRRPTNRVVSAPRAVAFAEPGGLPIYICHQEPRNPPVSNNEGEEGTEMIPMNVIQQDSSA
# Key:
# [1] = target: T1, human calcitonin receptor; assay: IC50 at hCTR divided by IC50 at hAmylin-R (reference)
# Experimental: The resulting pellet was resuspended, homogenized and centrifuged (20.000 rpm, 15 min) in a buffer containing 20 mM Na-HEPES and 0.1 mM EDTA (pH 7.4, buffer 2). The resulting pellet was resuspended in buffer 2 and protein concentration was measured (BCA protein Assay, Pierce). The homogenate was kept cold during the whole procedure. The membranes were kept at −80° C. until use. The assay was performed in a 384 well Optiplate (PerkinElmer) in a total volume of 40 ul. Membranes were mixed with SPA beads. Final concentration of membranes 35 ng/μL final and SPA beads was 0.05 mg/well. Test-compounds were dissolved in DMSO and further diluted in assay buffer (50 mM Hepes, pH 7.4, 1 mM CaCl2, 5 mM MgCl₂, 0.1% OA and 0.02% Tween20). […] The final mixture was incubated with shaking at 400 rpm for 120 min at 25° C. prior to centrifugation (1500 rpm, 10 min). Samples were analyzed on TopCounter™ (Packard). The IC₅₀ was calculated using (one site binding competition analysis) GraphPad Prism5 as a measure of receptor affinity.
# Membranes were prepared in the following way; the cells were rinsed with PBS and incubated with Versene for approximately 5 min before harvesting. The cells were flushed with PBS and the cell-suspension was centrifuged for 5 min at 1000 rpm. Cells were homogenized (Ultrathurrax) in a buffer containing 20 mM Na-HEPES and 10 mM EDTA (pH 7.4) and centrifuged at 20.000 rpm for 15 min. The resulting pellet was resuspended, homogenized and centrifuged (20.000 rpm, 15 min) in a buffer containing 20 mM Na-HEPES and 0.1 mM EDTA (pH 7.4, buffer 2). The resulting pellet was resuspended in buffer 2 and protein concentration was measured (BCA protein Assay, Pierce). The homogenate was kept cold during the whole procedure. The membranes were kept at −80° C. until use. Assay was performed in a 384 well Optiplate (PerkinElmer) in a total volume of 40 ul. Membranes were mixed with SPA beads.
# [2] = target: T2, rat amylin receptor (rat calcitonin …); assay: SPA competition vs 125I-rat amylin, membranes with rat CTR + rat RAMP3 (Assay VI)
# Experimental: The binding assay was performed using scintillation proximity assay (SPA) beads (RPNQ0001) from PerkinElmer and cell membranes from the Amylin 3(a)/CRE-luc cells (as described in Assay (II)) were used. Membranes were prepared in the following way; the cells were rinsed with PBS and incubated with Versene for approximately 5 min before harvesting. The cells were flushed with PBS and the cell-suspension was centrifuged for 5 min at 1000 rpm. Cells were homogenized (ultrathurrax) in a buffer containing 20 mM Na-HEPES and 10 mM EDTA (pH 7.4) and centrifuged at 20.000 rpm for 15 min. The resulting pellet was resuspended, homogenized and centrifuged (20.000 rpm, 15 min) in a buffer containing 20 mM Na-HEPES and 0.1 mM EDTA (pH 7.4, buffer 2). The resulting pellet was resuspended in buffer 2 and protein concentration was measured (BCA protein Assay, Pierce). The homogenate was kept cold during the whole procedure. The membranes were kept at −80° C. until use. The assay was performed in a 384 well Optiplate (PerkinElmer) in a total volume of 40 ul. Membranes were mixed with SPA beads. Final concentration of membranes 35 ng/μL final and SPA beads was 0.05 mg/well. Test-compounds were dissolved in DMSO and further diluted in assay buffer (50 mM Hepes, pH 7.4, 1 mM CaCl2, 5 mM MgCl₂, 0.1% OA and 0.02% Tween20). […] The final mixture was incubated with shaking at 400 rpm for 120 min at 25° C. prior to centrifugation (1500 rpm, 10 min). Samples were analyzed on TopCounter™ (Packard). The IC₅₀ was calculated using (one site binding competition analysis) GraphPad Prism5 as a measure of receptor affinity.
# Cells were grown in DMEM with 10% FBS and 1% Pen/Strep. Approximately 48 hours after transfection, the cells were harvested and membranes were prepared.
# rat calcitonin receptor = target: T3, rat calcitonin receptor; assay: SPA competition vs 125I-calcitonin, membranes with rat CTR (Assay VIII)
Ratio hCT/hAmylin binding [1],IC50 [2] [nM],IC50 (rat calcitonin receptor) [nM],Binder
26,,,"{C20 diacid-γGlu-γGlu}-KCNTATCATQRLAEFLRHSSPNFGAIPSSTNVGSNTY-NH2 (disulfide 2-7; SMILES CC[C@H](C)[C@H](NC(=O)[C@H](C)NC(=O)CNC(=O)[C@H](Cc1ccccc1)NC(=O)[C@H](CC(N)=O)NC(=O)[C@@H]1CCCN1C(=O)[C@H](CO)NC(=O)[C@H](CO)NC(=O)[C@H](Cc1c[nH]cn1)NC(=O)[C@H](CCCNC(=N)N)NC(=O)[C@H](CC(C)C)NC(=O)[C@H](Cc1ccccc1)NC(=O)[C@H](CCC(=O)O)NC(=O)[C@H](C)NC(=O)[C@H](CC(C)C)NC(=O)[C@H](CCCNC(=N)N)NC(=O)[C@H](CCC(N)=O)NC(=O)[C@@H](NC(=O)[C@H](C)NC(=O)[C@@H]1CSSC[C@H](NC(=O)[C@H](CCCCN)NC(=O)CC[C@H](NC(=O)CC[C@H](NC(=O)CCCCCCCCCCCCCCCCCCC(=O)O)C(=O)O)C(=O)O)C(=O)N[C@@H](CC(N)=O)C(=O)N[C@@H]([C@@H](C)O)C(=O)N[C@@H](C)C(=O)N[C@@H]([C@@H](C)O)C(=O)N1)[C@@H](C)O)C(=O)N1CCC[C@H]1C(=O)N[C@@H](CO)C(=O)N[C@@H](CO)C(=O)N[C@H](C(=O)N[C@@H](CC(N)=O)C(=O)N[C@H](C(=O)NCC(=O)N[C@@H](CO)C(=O)N[C@@H](CC(N)=O)C(=O)N[C@H](C(=O)N[C@@H](Cc1ccc(O)cc1)C(N)=O)[C@@H](C)O)C(C)C)[C@@H](C)O, modifications are with respect to human amylin; also called compound 15)"
,0.383,38,"K([AEEA-γGlu-C20 diacid])CNTATCATQRLANFLRHSSPNFGAIPSSTNVGSRTY-NH2 (disulfide 2-7; N-terminus assumed; SMILES CC[C@H](C)[C@H](NC(=O)[C@H](C)NC(=O)CNC(=O)[C@H](Cc1ccccc1)NC(=O)[C@H](CC(N)=O)NC(=O)[C@@H]1CCCN1C(=O)[C@H](CO)NC(=O)[C@H](CO)NC(=O)[C@H](Cc1c[nH]cn1)NC(=O)[C@H](CCCNC(=N)N)NC(=O)[C@H](CC(C)C)NC(=O)[C@H](Cc1ccccc1)NC(=O)[C@H](CC(N)=O)NC(=O)[C@H](C)NC(=O)[C@H](CC(C)C)NC(=O)[C@H](CCCNC(=N)N)NC(=O)[C@H](CCC(N)=O)NC(=O)[C@@H](NC(=O)[C@H](C)NC(=O)[C@@H]1CSSC[C@H](NC(=O)[C@@H](N)CCCCNC(=O)COCCOCCNC(=O)CC[C@H](NC(=O)CCCCCCCCCCCCCCCCCCC(=O)O)C(=O)O)C(=O)N[C@@H](CC(N)=O)C(=O)N[C@@H]([C@@H](C)O)C(=O)N[C@@H](C)C(=O)N[C@@H]([C@@H](C)O)C(=O)N1)[C@@H](C)O)C(=O)N1CCC[C@H]1C(=O)N[C@@H](CO)C(=O)N[C@@H](CO)C(=O)N[C@H](C(=O)N[C@@H](CC(N)=O)C(=O)N[C@H](C(=O)NCC(=O)N[C@@H](CO)C(=O)N[C@@H](CCCNC(=N)N)C(=O)N[C@H](C(=O)N[C@@H](Cc1ccc(O)cc1)C(N)=O)[C@@H](C)O)C(C)C)[C@@H](C)O, modifications are with respect to human amylin; also called compound 38)"

# Source: patent US20140087995A1 (published 2014)
